# B1: Mothers against decapentaplegic homolog 4 (Homo sapiens), Q13485 (parent)
# chain: MDNMSITNTPTSNDACLSIVHSLMCHRQGGESETFAKRAIESLVKKLKEKKDELDSLITAITTNGAHPSKCVTIQRTLDGRLQVAGRKGFPHVIYARLWRWPDLHKNELKHVKYCQYAFDLKCDSVCVNPYHYERVVSPGIDLSGLTLQSNAPSSMMVKDEYVHDFEGQPSLSTEGHSIQTIQHPPSNRASTETYSTPALLAPSESNATSTANFPNIPVASTSQPASILGGSHSEGLLQIASGPQPGQQQNGFTGQPATYHHNSTTTWTGSRTAPYTPNLPHHQNGHLQHHPPMPPHPGHYWPVHNELAFQPPISNHPAPEYWCSIAYFEMDVQVGETFKVPSSCPIVTVDGYVDPSGGDRFCLGQLSNVHRTEAIERARLHIGKGVQLECKGEGDVWVRCLSDHAVFVQSYYLDREAGRAPGDAVHKIYPSAYIKVFDLRQCHRQMQQQAATAQAAAAAQAAAVAGNIPGPGSVGGIAPAISLSAAAGIGVDDLRRLCILRMSFVKGWGPDYPRQSIKETPCWIEIHLHRALQLLDEVLHTMPIADPQPLD
# partner: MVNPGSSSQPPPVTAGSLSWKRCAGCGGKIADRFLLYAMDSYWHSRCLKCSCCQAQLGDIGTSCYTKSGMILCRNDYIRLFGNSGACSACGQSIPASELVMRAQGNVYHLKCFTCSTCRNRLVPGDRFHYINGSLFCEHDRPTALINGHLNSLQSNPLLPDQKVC
# B2: Melanoma-associated antigen F1 (Homo sapiens), Q9HAY2 (parent)
# chain: MLQTPESRGLPVPQAEGEKDGGHDGETRAPTASQERPKEELGAGREEGAAEPALTRKGARALAAKALARRRAYRRLNRTVAELVQFLLVKDKKKSPITRSEMVKYVIGDLKILFPDIIARAAEHLRYVFGFELKQFDRKHHTYILINKLKPLEEEEEEDLGGDGPRLGLLMMILGLIYMRGNSAREAQVWEMLRRLGVQPSKYHFLFGYPKRLIMEDFVQQRYLSYRRVPHTNPPEYEFSWGPRSNLEISKMEVLGFVAKLHKKEPQHWPVQYREALADEADRARAKARAEASMRARASARAGIHLW
# B3: Protein LDOC1 (Homo sapiens), O95751 (parent)
# chain: MVDELVLLLHALLMRHRALSIENSQLMEQLRLLVCERASLLRQVRPPSCPVPFPETFNGESSRLPEFIVQTASYMLVNENRFCNDAMKVAFLISLLTGEAEEWVVPYIEMDSPILGDYRAFLDEMKQCFGWDDDEDDDDEEEEDDY
# partner: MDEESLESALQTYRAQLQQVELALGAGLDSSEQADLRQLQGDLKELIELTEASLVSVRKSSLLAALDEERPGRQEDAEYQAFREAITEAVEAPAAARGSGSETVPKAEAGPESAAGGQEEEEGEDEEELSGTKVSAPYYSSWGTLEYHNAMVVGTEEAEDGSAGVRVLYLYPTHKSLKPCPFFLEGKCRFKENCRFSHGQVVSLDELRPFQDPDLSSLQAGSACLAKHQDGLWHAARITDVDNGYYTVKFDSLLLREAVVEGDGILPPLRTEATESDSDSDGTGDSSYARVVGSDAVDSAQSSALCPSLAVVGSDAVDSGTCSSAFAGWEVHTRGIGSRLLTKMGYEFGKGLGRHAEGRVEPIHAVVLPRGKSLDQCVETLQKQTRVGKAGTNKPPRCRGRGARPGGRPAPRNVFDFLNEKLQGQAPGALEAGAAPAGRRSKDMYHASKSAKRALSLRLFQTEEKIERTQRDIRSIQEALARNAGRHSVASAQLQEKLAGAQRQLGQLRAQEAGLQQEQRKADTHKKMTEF
# B4: Protein LDOC1 (Homo sapiens), O95751 (parent)
# chain: B3 chain
# partner: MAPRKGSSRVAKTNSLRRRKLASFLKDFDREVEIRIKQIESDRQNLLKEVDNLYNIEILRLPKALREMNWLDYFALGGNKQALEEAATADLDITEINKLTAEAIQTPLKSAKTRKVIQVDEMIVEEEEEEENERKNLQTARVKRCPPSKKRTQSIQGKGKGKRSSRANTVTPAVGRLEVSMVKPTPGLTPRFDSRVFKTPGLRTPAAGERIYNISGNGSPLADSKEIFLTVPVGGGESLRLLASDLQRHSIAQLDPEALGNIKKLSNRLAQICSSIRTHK
# Variants of: B1
# Conditions: with lmo4_human LMO4, P61968
row,Variant,effect of a mutation on the interaction
1,N13S,with no effect
2,C324R,disrupting interaction strength
3,E330K,with no effect

# Other lines, results leading:
row,effect of a mutation on the interaction,Variant
1,with no effect,Y353S
2,with no effect,R361C
3,with no effect,L533R
4,disrupting interaction strength,V350D
5,with no effect,G352R

# Variants of: B2
# Conditions: with mdfi_human MDFI
row,effect of a mutation on the interaction,Variant
1,with no effect,K93R

# Variants of: B3
# Conditions: with zgpat_human ZGPAT
row,effect of a mutation on the interaction,Variant
1,disrupting interaction strength,L12H

# Variants of: B4
# Conditions: with borea_human CDCA8, Q53HL2
row,effect of a mutation on the interaction,Variant
1,disrupting interaction strength,L12H
